{"source": "paper PMC10313662", "about": "“Structural insights into neurokinin 3 receptor activation by endogenous and analogue peptide agonists” (Cell Discovery, 2023)", "key": {"NK3R V235A [1]": {"target": "T1, NK3R V235A (human, UniProt P29371 1-465, NK3R-V235^ECL2 to alanine)", "T1 sequence (looked up)": "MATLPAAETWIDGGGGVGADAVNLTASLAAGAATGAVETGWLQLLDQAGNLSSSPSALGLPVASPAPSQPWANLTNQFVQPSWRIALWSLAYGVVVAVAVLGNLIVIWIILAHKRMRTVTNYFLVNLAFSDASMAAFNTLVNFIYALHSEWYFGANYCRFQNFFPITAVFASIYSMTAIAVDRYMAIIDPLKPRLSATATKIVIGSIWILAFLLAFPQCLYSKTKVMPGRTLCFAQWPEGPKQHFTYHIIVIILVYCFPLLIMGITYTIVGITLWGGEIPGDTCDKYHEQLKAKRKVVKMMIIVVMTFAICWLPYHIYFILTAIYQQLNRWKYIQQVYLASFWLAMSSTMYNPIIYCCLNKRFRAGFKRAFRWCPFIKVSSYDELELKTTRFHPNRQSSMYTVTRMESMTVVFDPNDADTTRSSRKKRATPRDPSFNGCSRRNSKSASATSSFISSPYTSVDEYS"}, "NK1R, NK2R, NK3R": {"tested_on": "NK1R, NK2R, NK3R", "conditions": "ref [21]; cited from earlier work"}, "wild-type NK3R": {"target": "T2, wild-type NK3R (Homo sapiens, UniProt P29371)", "T2 construct": "FLAG (DYKDDDDK); expressed in transfected cells; host or cells: HEK293T", "T2 sequence (P29371 1-465)": "T1 sequence (looked up) with A235V", "assay": "IP-one accumulation assay, wild-type NK3R", "assay_type": "cell-based"}, "NK3R V235A [2]": {"target": "T1, NK3R V235A", "assay": "cell-based or functional assay"}}, "note": "Residue numbers refer to the chain shown, from its start. Ends that are not written are not given here.", "data": [{"molecule": "senktide (suc-(Asp6, MePhe8) SP (6–11)) (peptide)", "values": [{"measurement": "IP-one accumulation, HEK293T cells; fold decrease in receptor activation against wild-type NK3R, stimulated by senktide", "setting": "NK3R V235A [1]", "result": 64, "unit": "fold"}]}, {"molecule": "neurokinin A [NKA]", "values": [{"measurement": "Preferential receptor activation/binding, in words", "setting": "NK1R, NK2R, NK3R", "result": "preferentially bind to NK1R and NK2R, respectively"}]}, {"molecule": "CSCC[C@H](NC(=O)[C@H](CC(C)C)NC(=O)CNC(=O)[C@H](Cc1ccccc1)NC(=O)[C@H](Cc1ccccc1)NC(=O)[C@H](CCC(N)=O)NC(=O)[C@H](CCC(N)=O)NC(=O)[C@@H]1CCCN1C(=O)[C@H](CCCCN)NC(=O)[C@@H]1CCCN1C(=O)[C@@H](N)CCCNC(=N)N)C(N)=O", "note": "[SP, substance P]", "values": [{"measurement": "Emax", "setting": "wild-type NK3R", "result": 100, "unit": "%"}]}, {"molecule": "CSCC[C@H](NC(=O)[C@H](CC(C)C)NC(=O)CNC(=O)[C@@H](NC(=O)[C@H](Cc1ccccc1)NC(=O)[C@H](Cc1ccccc1)NC(=O)[C@H](CC(=O)O)NC(=O)[C@H](Cc1c[nH]cn1)NC(=O)[C@H](CCSC)NC(=O)[C@@H](N)CC(=O)O)C(C)C)C(N)=O", "note": "[NKB, neurokinin B]", "values": [{"measurement": "Emax", "setting": "wild-type NK3R", "result": 100, "unit": "%"}]}, {"molecule": "RPKPQQFFGLM-NH2 (peptide, UniProt P20366 58-68, looked up)", "note": "[substance P]", "values": [{"measurement": "IP-one accumulation, HEK293T cells; fold decrease in receptor activation against wild-type NK3R, stimulated by SP", "setting": "NK3R V235A [2]", "result": 30, "unit": "fold"}]}, {"molecule": "DMHDFFVGLM-NH2 (peptide, UniProt Q9UHF0 81-90, looked up)", "note": "[neurokinin B]", "values": [{"measurement": "IP-one accumulation, HEK293T cells; fold decrease in receptor activation against wild-type NK3R, stimulated by NKB", "setting": "NK3R V235A [2]", "result": 5.2, "unit": "fold"}]}]}
